Biological target: T1, Cullin-5 (CUL5), residues 12-780 (human, UniProt Q93034 12-780)
T1 construct: source: E. coli BL21 (DE3), coexpressed with RBX2, purified (Ni-NTA, SEC); not shown: GB1, N-terminal, cleaved
T1 sequence: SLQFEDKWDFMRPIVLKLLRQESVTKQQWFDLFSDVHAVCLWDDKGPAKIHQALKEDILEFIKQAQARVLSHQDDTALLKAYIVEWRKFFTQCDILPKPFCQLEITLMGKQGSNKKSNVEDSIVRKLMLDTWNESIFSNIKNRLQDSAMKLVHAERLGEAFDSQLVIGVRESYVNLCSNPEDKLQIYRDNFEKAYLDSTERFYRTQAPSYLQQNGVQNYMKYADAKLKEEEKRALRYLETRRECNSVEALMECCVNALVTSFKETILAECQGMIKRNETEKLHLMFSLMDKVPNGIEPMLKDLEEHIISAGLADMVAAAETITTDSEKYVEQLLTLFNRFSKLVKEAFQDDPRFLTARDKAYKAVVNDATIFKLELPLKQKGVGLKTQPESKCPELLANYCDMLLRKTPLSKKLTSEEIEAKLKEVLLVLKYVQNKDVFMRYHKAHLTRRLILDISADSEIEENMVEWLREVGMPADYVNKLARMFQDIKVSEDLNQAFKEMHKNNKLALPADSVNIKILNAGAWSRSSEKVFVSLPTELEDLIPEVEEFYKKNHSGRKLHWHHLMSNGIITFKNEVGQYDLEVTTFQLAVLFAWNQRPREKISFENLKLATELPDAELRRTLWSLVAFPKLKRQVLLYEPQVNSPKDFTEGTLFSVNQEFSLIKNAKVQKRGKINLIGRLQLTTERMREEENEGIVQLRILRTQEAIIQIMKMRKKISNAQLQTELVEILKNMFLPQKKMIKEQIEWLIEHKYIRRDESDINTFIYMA
Assay: cryo-EM structure
Conditions: both partners purified

B1: zinc finger RING-box protein 2 (RBX2), residues 1-113 (natural protein)
chain: MADVEDGEETCALASHSGSSGSKSGGDKMFSLKKWNAVAMWSWDVECDTCAICRVQVMDACLRCQAENKQEDCVVVWGECNHSFHNCCMSLWVKQNNRCPLCQQDWVVQRIGK
notes: source: E. coli BL21 (DE3), coexpressed with CUL5, purified (Ni-NTA, SEC)
- binding result: binds
